Experimental data taken from patent US20060234285A1 (Human Genome Sciences, published 2006).

How the values were obtained:
Experiment in all cases: flow cytometry on transiently transfected cells
[1] = target: T1, DcR2, on transiently transfected cells (UniProt Q9UBN6 56-386, limits assumed)
T1 construct: whole, on cells
T1 sequence (looked up): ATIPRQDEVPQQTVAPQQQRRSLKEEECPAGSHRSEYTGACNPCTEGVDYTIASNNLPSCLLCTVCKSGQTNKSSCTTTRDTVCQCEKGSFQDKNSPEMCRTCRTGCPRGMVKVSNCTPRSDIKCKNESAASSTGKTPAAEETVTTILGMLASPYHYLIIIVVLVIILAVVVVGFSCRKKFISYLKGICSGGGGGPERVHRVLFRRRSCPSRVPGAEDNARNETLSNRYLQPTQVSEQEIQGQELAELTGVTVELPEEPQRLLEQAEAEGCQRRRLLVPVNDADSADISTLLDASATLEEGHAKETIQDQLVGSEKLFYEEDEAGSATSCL
Experimental: (§1) One million cells, in 0.1 ml of FACS buffer (PBS, 0.1% BSA, 0.1% NaN₃), were incubated with 0.1-1 microgram of protein or antibody at RT for 15 min. The cells were washed with 3 ml of FACS buffer, reacted with biotinylated primary antibody, and stained with PE-conjugated secondary antibody at RT for 15 min. Cells were then washed again, resuspended in 0.5 microgram/ml of propidium iodide, and live cells were gated and analyzed on a FACScan using the CellQuest software (BD Biosciences).

[2] = target: T2, HveA, on transiently transfected cells (UniProt Q92956 39-283, limits assumed)
T2 construct: whole, on cells
T2 sequence (looked up): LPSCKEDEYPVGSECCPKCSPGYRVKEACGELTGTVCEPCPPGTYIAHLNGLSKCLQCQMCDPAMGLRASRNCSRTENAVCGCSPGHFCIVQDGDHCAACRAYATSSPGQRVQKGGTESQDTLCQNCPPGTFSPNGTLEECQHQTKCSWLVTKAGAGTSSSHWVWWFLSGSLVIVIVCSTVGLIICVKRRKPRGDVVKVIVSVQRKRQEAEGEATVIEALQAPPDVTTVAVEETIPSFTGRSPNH
Experimental: as §1

[3] = target: T3, DcR1, on transiently transfected cells (UniProt O14798 26-236, limits assumed)
T3 construct: whole, on cells
T3 sequence (looked up): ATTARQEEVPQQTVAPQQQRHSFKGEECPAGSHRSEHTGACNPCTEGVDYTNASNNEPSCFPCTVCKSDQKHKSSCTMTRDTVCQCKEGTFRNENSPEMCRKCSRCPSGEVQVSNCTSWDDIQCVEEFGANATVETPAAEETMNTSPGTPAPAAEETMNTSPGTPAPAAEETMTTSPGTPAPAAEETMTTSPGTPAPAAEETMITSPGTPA
Experimental: as §1

[4] = target: T4, AITR, on transiently transfected cells (UniProt Q9Y5U5 26-241, limits assumed)
T4 construct: whole, on cells
T4 sequence (looked up): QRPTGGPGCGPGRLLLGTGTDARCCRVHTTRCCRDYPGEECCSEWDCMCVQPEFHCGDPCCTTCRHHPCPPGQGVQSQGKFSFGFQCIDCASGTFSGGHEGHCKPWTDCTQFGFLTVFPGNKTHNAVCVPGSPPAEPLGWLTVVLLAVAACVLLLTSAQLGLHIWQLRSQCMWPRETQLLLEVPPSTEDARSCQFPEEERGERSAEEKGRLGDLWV
Experimental: as §1

[5] = target: T5, 4-1BB, on transiently transfected cells (UniProt Q07011 24-255)
T5 construct: whole, on cells
Experimental: as §1

[6] = target: T6, RANK, on transiently transfected cells (UniProt Q9Y6Q6 30-616, limits assumed)
T6 construct: whole, on cells
T6 sequence (looked up): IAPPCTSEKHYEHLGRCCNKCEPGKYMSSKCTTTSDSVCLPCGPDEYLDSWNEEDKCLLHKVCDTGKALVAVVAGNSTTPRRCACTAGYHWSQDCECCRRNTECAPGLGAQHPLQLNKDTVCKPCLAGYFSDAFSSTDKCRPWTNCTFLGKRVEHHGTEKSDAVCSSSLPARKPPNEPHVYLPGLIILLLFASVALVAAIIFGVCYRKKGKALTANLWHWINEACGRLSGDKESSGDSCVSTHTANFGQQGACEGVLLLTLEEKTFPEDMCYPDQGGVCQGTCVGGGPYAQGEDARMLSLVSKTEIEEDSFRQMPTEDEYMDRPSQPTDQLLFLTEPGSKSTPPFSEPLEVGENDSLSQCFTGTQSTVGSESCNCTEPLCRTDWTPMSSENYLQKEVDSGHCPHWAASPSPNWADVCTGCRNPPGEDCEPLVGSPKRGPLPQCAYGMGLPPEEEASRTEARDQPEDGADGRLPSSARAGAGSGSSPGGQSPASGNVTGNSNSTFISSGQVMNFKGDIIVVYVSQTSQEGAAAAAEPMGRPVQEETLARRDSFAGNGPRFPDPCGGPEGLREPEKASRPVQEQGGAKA
Experimental: as §1

[7] = target: T7, CD27, on transiently transfected cells (UniProt P26842 20-260, limits assumed)
T7 construct: whole, on cells
T7 sequence (looked up): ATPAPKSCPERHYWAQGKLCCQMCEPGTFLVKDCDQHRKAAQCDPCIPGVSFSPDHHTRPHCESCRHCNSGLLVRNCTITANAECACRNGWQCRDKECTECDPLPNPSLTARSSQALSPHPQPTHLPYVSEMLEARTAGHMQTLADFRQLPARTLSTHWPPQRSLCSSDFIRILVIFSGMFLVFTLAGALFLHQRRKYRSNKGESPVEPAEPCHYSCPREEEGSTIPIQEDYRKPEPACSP
Experimental: as §1

Measured: binding result

T5 sequence (Q07011 24-255): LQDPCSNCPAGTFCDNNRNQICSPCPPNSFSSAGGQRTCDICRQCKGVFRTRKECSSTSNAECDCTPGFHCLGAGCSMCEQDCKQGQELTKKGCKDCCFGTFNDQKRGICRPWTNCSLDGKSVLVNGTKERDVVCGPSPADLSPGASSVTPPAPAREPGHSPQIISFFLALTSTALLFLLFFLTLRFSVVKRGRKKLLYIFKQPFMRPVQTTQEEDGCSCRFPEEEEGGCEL

B1: FLAG-tagged soluble form of TNF-gamma-beta (aa 72-251) (ligand, human, UniProt O95150 72-251, looked up, not shown: small tags and cut ends)
chain: LKGQEFAPSHQQVYAPLRADGDKPRAHLTVVRQTPTQHFKNQFPALHWEHELGLAFTKNRMNYTNKFLLIPESGDYFIYSQVTFRGMTSECSEIRQAGRPNKPDSITVVITKVTDSYPEPTQLLMGTKSVCEVGSNWFQPIYLGAMFSLQEGDKLMVNVSDISLVDYTKEDKTFFGAFLL
notes: also called FLAG-TL1β; FLAG-TNF-gamma-beta
no binding: [1] | [2] | [3] | [4] | [5] | [6] | [7]
